From patent US20230322950A1 (Hoffmann-La Roche, published 2023)
Like-named read-outs stand apart in the source and are kept apart here.

What was measured:
[1] = target: VL1VH3-CD8ATD-CD137CSD-CD3zSSD fusion; assay: cell-based or functional assay
[2] = target: VH3VL1-CD8ATD-CD137CSD-CD3zSSD fusion; assay: cell-based or functional assay
[3] = target: VH2VL1-CD8ATD-CD137CSD-CD3zSSD fusion; assay: cell-based or functional assay
[4] = target: VH1VL1-CD8ATD-CD137CSD-CD3zSSD fusion; assay: cell-based or functional assay
[5] = target: T1, VL1VH3-CD8ATD-CD137CSD-CD3zSSD fusion; assay: Jurkat NFAT luciferase reporter assay with CD20-positive WSUDLCL2 target cells (5:1); no reporter activation, which the filing uses to exclude unspecific binding
T1 construct: Chimeric antigen receptor with the scFv in VL-VH order, expressed on Jurkat NFAT reporter cells; also called VL1VH3 P329G-CAR
T1 sequence (chain, as listed by the source): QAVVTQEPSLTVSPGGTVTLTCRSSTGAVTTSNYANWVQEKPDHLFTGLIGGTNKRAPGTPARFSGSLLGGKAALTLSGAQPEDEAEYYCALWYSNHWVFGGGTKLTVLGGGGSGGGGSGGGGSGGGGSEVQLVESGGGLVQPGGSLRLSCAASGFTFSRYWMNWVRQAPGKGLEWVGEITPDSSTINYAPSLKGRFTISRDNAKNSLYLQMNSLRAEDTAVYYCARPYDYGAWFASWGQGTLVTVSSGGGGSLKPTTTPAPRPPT
Procedure: (§1) Binding of the CAR to an immobilized adapter molecule (e.g. a tumor antigen bound adapter molecule) leads to CAR crosslinking resulting in T cell activation and in the expression of luciferase. […] The 384 well plate was centrifuged for 1 min at 300g and RT and incubated at 37° C. and 5% CO₂ in a humidity atmosphere. After 7h incubation 20% of the final volume of ONE-Glo™ Luciferase Assay (E6120, Promega) was added, and plates were centrifuged for 1 min at 350×g. Afterwards, the relative luminescence units (RLU) per s/well were measured immediately using a Tecan microplate reader. Concentration-response curves were fitted and EC₅₀ values were calculated using GraphPadPrism version 7. As p value the New England Journal of Medicine style was used as listed in GraphPadPrism 7. Meaning*=P≤0,033; **=P≤0,002; ***=P≤0.001.

[6] = target: T2, VH3VL1-CD8ATD-CD137CSD-CD3zSSD fusion; assay: as above
T2 construct: also called VH3VL1 P329G-CAR
T2 sequence (chain, as listed by the source): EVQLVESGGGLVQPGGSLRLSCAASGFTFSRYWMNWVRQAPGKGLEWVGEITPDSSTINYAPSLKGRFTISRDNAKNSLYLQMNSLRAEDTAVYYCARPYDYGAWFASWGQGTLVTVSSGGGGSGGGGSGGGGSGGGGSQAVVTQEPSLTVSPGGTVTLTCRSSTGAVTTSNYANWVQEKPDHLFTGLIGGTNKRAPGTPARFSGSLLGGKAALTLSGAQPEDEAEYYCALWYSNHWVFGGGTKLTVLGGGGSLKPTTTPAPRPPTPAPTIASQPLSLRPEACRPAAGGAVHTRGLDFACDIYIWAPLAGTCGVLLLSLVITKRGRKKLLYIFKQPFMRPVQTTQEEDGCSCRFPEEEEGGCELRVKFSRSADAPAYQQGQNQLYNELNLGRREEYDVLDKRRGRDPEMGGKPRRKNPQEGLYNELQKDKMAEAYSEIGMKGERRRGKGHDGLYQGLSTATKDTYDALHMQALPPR
Procedure: as §1

[7] = target: T3, VH2VL1-CD8ATD-CD137CSD-CD3zSSD fusion; assay: as above
T3 construct: Chimeric antigen receptor expressed on Jurkat NFAT reporter cells; also called VH2VL1 P329G-CAR
T3 sequence (chain, as listed by the source): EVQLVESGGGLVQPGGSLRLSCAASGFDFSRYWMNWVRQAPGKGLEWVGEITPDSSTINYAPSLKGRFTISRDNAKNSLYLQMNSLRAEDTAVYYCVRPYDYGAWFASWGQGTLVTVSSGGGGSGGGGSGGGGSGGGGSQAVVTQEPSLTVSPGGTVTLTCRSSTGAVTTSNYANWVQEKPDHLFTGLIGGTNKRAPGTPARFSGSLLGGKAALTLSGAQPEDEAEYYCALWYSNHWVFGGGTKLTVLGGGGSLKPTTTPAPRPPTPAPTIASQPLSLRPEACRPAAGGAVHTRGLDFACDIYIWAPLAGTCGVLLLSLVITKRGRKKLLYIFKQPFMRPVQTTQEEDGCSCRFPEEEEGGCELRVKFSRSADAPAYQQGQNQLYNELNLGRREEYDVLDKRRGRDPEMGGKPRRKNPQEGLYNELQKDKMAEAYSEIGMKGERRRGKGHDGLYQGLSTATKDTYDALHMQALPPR
Procedure: as §1

[8] = target: T4, VH1VL1-CD8ATD-CD137CSD-CD3zSSD fusion; assay: as above
T4 construct: Chimeric antigen receptor expressed on Jurkat NFAT reporter cells; also called VH1VL1 P329G-CAR
T4 sequence (chain, as listed by the source): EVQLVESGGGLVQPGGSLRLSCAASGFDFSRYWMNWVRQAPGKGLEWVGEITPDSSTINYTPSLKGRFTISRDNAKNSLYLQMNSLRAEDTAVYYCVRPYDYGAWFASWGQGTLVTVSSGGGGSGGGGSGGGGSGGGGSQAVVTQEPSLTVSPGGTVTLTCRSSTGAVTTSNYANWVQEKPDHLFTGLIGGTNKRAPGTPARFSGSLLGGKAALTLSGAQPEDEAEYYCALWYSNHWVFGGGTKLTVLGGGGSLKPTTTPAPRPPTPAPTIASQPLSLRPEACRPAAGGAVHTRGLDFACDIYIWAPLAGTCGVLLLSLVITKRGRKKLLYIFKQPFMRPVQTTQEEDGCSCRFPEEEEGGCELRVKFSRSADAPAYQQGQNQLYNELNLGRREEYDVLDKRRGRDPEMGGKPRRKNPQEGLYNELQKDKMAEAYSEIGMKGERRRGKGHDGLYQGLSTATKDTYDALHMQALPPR
Procedure: as §1

[9] = target: T1, VL1VH3-CD8ATD-CD137CSD-CD3zSSD fusion; assay: cell-based or functional assay; remark: listed apart in the source
[10] = target: T2, VH3VL1-CD8ATD-CD137CSD-CD3zSSD fusion; assay: cell-based or functional assay; remark: listed apart in the source
[11] = target: T3, VH2VL1-CD8ATD-CD137CSD-CD3zSSD fusion; assay: cell-based or functional assay; remark: listed apart in the source
[12] = target: T4, VH1VL1-CD8ATD-CD137CSD-CD3zSSD fusion; assay: cell-based or functional assay; remark: listed apart in the source
[13] = target: T1, VL1VH3-CD8ATD-CD137CSD-CD3zSSD fusion; assay: Jurkat NFAT luciferase reporter assay with CD20-positive WSUDLCL2 target cells (5:1); no reporter activation, which the filing uses to exclude unspecific binding; remark: listed apart in the source
Procedure: as §1

[14] = target: T2, VH3VL1-CD8ATD-CD137CSD-CD3zSSD fusion; assay: as above; remark: listed apart in the source
Procedure: as §1

[15] = target: T3, VH2VL1-CD8ATD-CD137CSD-CD3zSSD fusion; assay: as above; remark: listed apart in the source
Procedure: as §1

[16] = target: T4, VH1VL1-CD8ATD-CD137CSD-CD3zSSD fusion; assay: as above; remark: listed apart in the source
Procedure: as §1

Binder | EC50 printed in the drawn table (row 'VL1 x VH 3') for the Jurkat NFAT reporter assay with WSUDLCL2 cells; it is a fit of a flat curve at background and no activation is seen [1] | EC50 printed in the drawn table (row 'VH3 x VL1') for the Jurkat NFAT reporter assay with WSUDLCL2 cells; it is a fit of a flat curve at background and no activation is seen [2] | EC50 printed in the drawn table (row 'VH2 x VL1') for the Jurkat NFAT reporter assay with WSUDLCL2 cells; it is a fit of a flat curve at background and no activation is seen [3] | EC50 printed in the drawn table (row 'VH1 x VL1') for the Jurkat NFAT reporter assay with WSUDLCL2 cells; it is a fit of a flat curve at background and no activation is seen [4] | binding result [5] | binding result [6] | binding result [7] | binding result [8] | EC50 printed in the drawn table (row 'VL1 x VH 3') for the Jurkat NFAT reporter assay with WSUDLCL2 cells; it is a fit of a flat curve at background and no activation is seen [9] | EC50 printed in the drawn table (row 'VH3 x VL1') for the Jurkat NFAT reporter assay with WSUDLCL2 cells; it is a fit of a flat curve at background and no activation is seen [10] | EC50 printed in the drawn table (row 'VH2 x VL1') for the Jurkat NFAT reporter assay with WSUDLCL2 cells; it is a fit of a flat curve at background and no activation is seen [11] | EC50 printed in the drawn table (row 'VH1 x VL1') for the Jurkat NFAT reporter assay with WSUDLCL2 cells; it is a fit of a flat curve at background and no activation is seen [12] | binding result [13] | binding result [14] | binding result [15] | binding result [16]
anti-CD20 (GA101) wild type IgG1 (antibody, also called GA101 Fc wildtyp) heavy: not shown light: DIVMTQTPLSLPVTPGEPASISCRSSKSLLHSNGITYLYWYLQKPGQSPQLLIYQMSNLVSGVPDRFSGSGSGTDFTLKISRVEAEDVGVYYCAQNLELPYTFGGGTKVEIKRTVAAPSVFIFPPSDEQLKSGTASVVCLLNNFYPREAKVQWKVDNALQSGNSQESVTEQDSKDSTYSLSSTLTLSKADYEKHKVYACEVTHQGLSSPVTKSFNRGEC | ~78.3 pM | ~85 pM | 0.000119 pM | ~2.19 pM | no binding (tested: 67 nM) | no binding (tested: 67 nM) | no binding (tested: 67 nM) | no binding (tested: 67 nM) | – | – | – | – | – | – | – | –
anti-CD20 (GA101) LALA IgG1 (antibody) heavy: not shown light: DIVMTQTPLSLPVTPGEPASISCRSSKSLLHSNGITYLYWYLQKPGQSPQLLIYQMSNLVSGVPDRFSGSGSGTDFTLKISRVEAEDVGVYYCAQNLELPYTFGGGTKVEIKRTVAAPSVFIFPPSDEQLKSGTASVVCLLNNFYPREAKVQWKVDNALQSGNSQESVTEQDSKDSTYSLSSTLTLSKADYEKHKVYACEVTHQGLSSPVTKSFNRGEC | – | – | – | – | – | – | – | – | ~0.000234 pM | ~1.61e+07 mM | ~0 nM | ~0.0485 pM | no binding (tested: 67 nM) | no binding (tested: 67 nM) | no binding (tested: 67 nM) | no binding (tested: 67 nM)
